From patent US20260209386A1 (MYTHIC THERAPEUTICS, published 2026)

T1: Human PTK7 Protein, His Tag, Acro Biosystems (human, UniProt Q13308 31-704)
T1 construct: Bought protein; also called CCK4; not shown: His tag
T1 sequence: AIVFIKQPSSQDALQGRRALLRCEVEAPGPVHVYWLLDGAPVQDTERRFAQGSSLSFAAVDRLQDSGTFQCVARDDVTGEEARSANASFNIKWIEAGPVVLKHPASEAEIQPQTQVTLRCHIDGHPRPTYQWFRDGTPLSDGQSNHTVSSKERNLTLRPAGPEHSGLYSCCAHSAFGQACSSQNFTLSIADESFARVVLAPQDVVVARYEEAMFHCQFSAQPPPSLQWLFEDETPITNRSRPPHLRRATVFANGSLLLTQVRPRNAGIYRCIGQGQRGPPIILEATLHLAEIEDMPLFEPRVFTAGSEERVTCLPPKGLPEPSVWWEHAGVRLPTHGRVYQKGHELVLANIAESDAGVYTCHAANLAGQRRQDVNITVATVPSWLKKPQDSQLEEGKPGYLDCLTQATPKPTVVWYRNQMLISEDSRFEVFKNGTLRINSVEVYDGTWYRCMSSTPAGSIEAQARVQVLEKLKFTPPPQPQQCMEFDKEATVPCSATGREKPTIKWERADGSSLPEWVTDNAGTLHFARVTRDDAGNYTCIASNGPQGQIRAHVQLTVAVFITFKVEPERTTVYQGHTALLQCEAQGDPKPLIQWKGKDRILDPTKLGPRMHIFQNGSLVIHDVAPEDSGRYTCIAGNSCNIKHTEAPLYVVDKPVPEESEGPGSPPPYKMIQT


Target: T1, Human PTK7 Protein, His Tag, Acro …
Assay: BLI (Octet), antibody on anti-human Fc sensor, 50 nM PTK7, dissociation at pH 7.4 or 5.4; 2 = substantially similar binding relative to parent

Binder	binding result
MYT11201 (antibody, V domains shown, HC variant of MYT9460, sub at HCV pos 61 (H2 12)) VH: EVQLVESGGGLVQPGGSLRLSCTASGIDLSSYVMGWVRQAPGKGLEWVGYIYGGGGTYYAHWARGRFTISRDTSKNTVYLQMNSLRAEDTAVYFCARAAADFYFNLWGQGTLVTVSS VL: EIVMTQSPSTLSASVGDRVIITCQASQSISSYLAWYQQKPGKAPKLLIYDISDLASGVPSRFSGSGSGAEFTLTISSLQPDDFATYYCQSYYWISNSGAAFGQGTKLTVL	binds
MYT11205 (antibody, V domains shown, HC variant of MYT9460, sub at HCV pos 65 (H2 16)) VH: EVQLVESGGGLVQPGGSLRLSCTASGIDLSSYVMGWVRQAPGKGLEWVGYIYGGGGTYYATWARHRFTISRDTSKNTVYLQMNSLRAEDTAVYFCARAAADFYFNLWGQGTLVTVSS VL: EIVMTQSPSTLSASVGDRVIITCQASQSISSYLAWYQQKPGKAPKLLIYDISDLASGVPSRFSGSGSGAEFTLTISSLQPDDFATYYCQSYYWISNSGAAFGQGTKLTVL	binds
MYT11218 (antibody, V domains shown, HC variant of MYT9460, sub at HCV pos 28 (H1 03), second variant at this position, new residue not marked) VH: EVQLVESGGGLVQPGGSLRLSCTASGIALSSYVMGWVRQAPGKGLEWVGYIYGGGGTYYATWARGRFTISRDTSKNTVYLQMNSLRAEDTAVYFCARAAADFYFNLWGQGTLVTVSS VL: EIVMTQSPSTLSASVGDRVIITCQASQSISSYLAWYQQKPGKAPKLLIYDISDLASGVPSRFSGSGSGAEFTLTISSLQPDDFATYYCQSYYWISNSGAAFGQGTKLTVL	binds
MYT11216 (antibody, V domains shown) VH: EVQLVESGGGLVQPGGSLRLSCTASGIDLSSYVMGWVRQAPGKGLEWVGYIYGGGGTYYATWARGRFTISRDTSKNTVYLQMNSLRAEDTAVYFCARAAADFYFNHWGQGTLVTVSS VL: EIVMTQSPSTLSASVGDRVIITCQASQSISSYLAWYQQKPGKAPKLLIYDISDLASGVPSRFSGSGSGAEFTLTISSLQPDDFATYYCQSYYWISNSGAAFGQGTKLTVL	binds
MYT11223 (antibody, V domains shown, LC variant of MYT9460, sub at LCV pos 27 (L1 04)) VH: EVQLVESGGGLVQPGGSLRLSCTASGIDLSSYVMGWVRQAPGKGLEWVGYIYGGGGTYYATWARGRFTISRDTSKNTVYLQMNSLRAEDTAVYFCARAAADFYFNLWGQGTLVTVSS VL: EIVMTQSPSTLSASVGDRVIITCQASHSISSYLAWYQQKPGKAPKLLIYDISDLASGVPSRFSGSGSGAEFTLTISSLQPDDFATYYCQSYYWISNSGAAFGQGTKLTVL	binds
MYT11217 (antibody, V domains shown) VH: EVQLVESGGGLVQPGGSLRLSCTASGIDLSSYVMGWVRQAPGKGLEWVGYIYGGGGTYYATWARGRFTISRDTSKNTVYLQMNSLRAEDTAVYYCARAAADFYFNLWGQGTLVTVSS VL: EIVMTQSPSTLSASVGDRVIITCQASQSISSYLAWYQQKPGKAPKLLIYDISDLASGVPSRFSGSGSGAEFTLTISSLQPDDFATYYCQSYYWISNSGAAFGQGTKLTVL	binds
MYT11209 (antibody, V domains shown, HC variant of MYT9460, sub at HCV pos 99 (H3 04)) VH: EVQLVESGGGLVQPGGSLRLSCTASGIDLSSYVMGWVRQAPGKGLEWVGYIYGGGGTYYATWARGRFTISRDTSKNTVYLQMNSLRAEDTAVYFCARAHADFYFNLWGQGTLVTVSS VL: EIVMTQSPSTLSASVGDRVIITCQASQSISSYLAWYQQKPGKAPKLLIYDISDLASGVPSRFSGSGSGAEFTLTISSLQPDDFATYYCQSYYWISNSGAAFGQGTKLTVL	binds
MYT11203 (antibody, V domains shown, HC variant of MYT9460, sub at HCV pos 63 (H2 14)) VH: EVQLVESGGGLVQPGGSLRLSCTASGIDLSSYVMGWVRQAPGKGLEWVGYIYGGGGTYYATWHRGRFTISRDTSKNTVYLQMNSLRAEDTAVYFCARAAADFYFNLWGQGTLVTVSS VL: EIVMTQSPSTLSASVGDRVIITCQASQSISSYLAWYQQKPGKAPKLLIYDISDLASGVPSRFSGSGSGAEFTLTISSLQPDDFATYYCQSYYWISNSGAAFGQGTKLTVL	binds
MYT11214 (antibody, V domains shown, HC variant of MYT9460, sub at HCV pos 104 (H3 09)) VH: EVQLVESGGGLVQPGGSLRLSCTASGIDLSSYVMGWVRQAPGKGLEWVGYIYGGGGTYYATWARGRFTISRDTSKNTVYLQMNSLRAEDTAVYFCARAAADFYHNLWGQGTLVTVSS VL: EIVMTQSPSTLSASVGDRVIITCQASQSISSYLAWYQQKPGKAPKLLIYDISDLASGVPSRFSGSGSGAEFTLTISSLQPDDFATYYCQSYYWISNSGAAFGQGTKLTVL	binds
MYT11202 (antibody, V domains shown, HC variant of MYT9460, sub at HCV pos 62 (H2 13)) VH: EVQLVESGGGLVQPGGSLRLSCTASGIDLSSYVMGWVRQAPGKGLEWVGYIYGGGGTYYATHARGRFTISRDTSKNTVYLQMNSLRAEDTAVYFCARAAADFYFNLWGQGTLVTVSS VL: EIVMTQSPSTLSASVGDRVIITCQASQSISSYLAWYQQKPGKAPKLLIYDISDLASGVPSRFSGSGSGAEFTLTISSLQPDDFATYYCQSYYWISNSGAAFGQGTKLTVL	binds

Further lines, results first:

binding result	Binder
binds	MYT11208 (antibody, V domains shown, HC variant of MYT9460, sub at HCV pos 98 (H3 03)) VH: EVQLVESGGGLVQPGGSLRLSCTASGIDLSSYVMGWVRQAPGKGLEWVGYIYGGGGTYYATWARGRFTISRDTSKNTVYLQMNSLRAEDTAVYFCARHAADFYFNLWGQGTLVTVSS VL: EIVMTQSPSTLSASVGDRVIITCQASQSISSYLAWYQQKPGKAPKLLIYDISDLASGVPSRFSGSGSGAEFTLTISSLQPDDFATYYCQSYYWISNSGAAFGQGTKLTVL
binds	MYT11219 (antibody, V domains shown, HC variant of MYT9460, printed as H3 05 with HCV pos 101, new residue not marked) VH: EVQLVESGGGLVQPGGSLRLSCTASGIDLSSYVMGWVRQAPGKGLEWVGYIYGGGGTYYATWARGRFTISRDTSKNTVYLQMNSLRAEDTAVYFCARAAAAFYFNLWGQGTLVTVSS VL: EIVMTQSPSTLSASVGDRVIITCQASQSISSYLAWYQQKPGKAPKLLIYDISDLASGVPSRFSGSGSGAEFTLTISSLQPDDFATYYCQSYYWISNSGAAFGQGTKLTVL
binds	MYT11215 (antibody, V domains shown) VH: EVQLVESGGGLVQPGGSLRLSCTASGIDLSSYVMGWVRQAPGKGLEWVGYIYGGGGTYYATWARGRFTISRDTSKNTVYLQMNSLRAEDTAVYFCARAAADFYFHLWGQGTLVTVSS VL: EIVMTQSPSTLSASVGDRVIITCQASQSISSYLAWYQQKPGKAPKLLIYDISDLASGVPSRFSGSGSGAEFTLTISSLQPDDFATYYCQSYYWISNSGAAFGQGTKLTVL
binds	MYT11206 (antibody, V domains shown, HC variant of MYT9460, sub at HCV pos 96 (H3 01)) VH: EVQLVESGGGLVQPGGSLRLSCTASGIDLSSYVMGWVRQAPGKGLEWVGYIYGGGGTYYATWARGRFTISRDTSKNTVYLQMNSLRAEDTAVYFCHRAAADFYFNLWGQGTLVTVSS VL: EIVMTQSPSTLSASVGDRVIITCQASQSISSYLAWYQQKPGKAPKLLIYDISDLASGVPSRFSGSGSGAEFTLTISSLQPDDFATYYCQSYYWISNSGAAFGQGTKLTVL
binds	MYT11220 (antibody, V domains shown, LC variant of MYT9460, sub at LCV pos 24 (L1 01)) VH: EVQLVESGGGLVQPGGSLRLSCTASGIDLSSYVMGWVRQAPGKGLEWVGYIYGGGGTYYATWARGRFTISRDTSKNTVYLQMNSLRAEDTAVYFCARAAADFYFNLWGQGTLVTVSS VL: EIVMTQSPSTLSASVGDRVIITCHASQSISSYLAWYQQKPGKAPKLLIYDISDLASGVPSRFSGSGSGAEFTLTISSLQPDDFATYYCQSYYWISNSGAAFGQGTKLTVL
binds	MYT11207 (antibody, V domains shown, HC variant of MYT9460, sub at HCV pos 97 (H3 02)) VH: EVQLVESGGGLVQPGGSLRLSCTASGIDLSSYVMGWVRQAPGKGLEWVGYIYGGGGTYYATWARGRFTISRDTSKNTVYLQMNSLRAEDTAVYFCAHAAADFYFNLWGQGTLVTVSS VL: EIVMTQSPSTLSASVGDRVIITCQASQSISSYLAWYQQKPGKAPKLLIYDISDLASGVPSRFSGSGSGAEFTLTISSLQPDDFATYYCQSYYWISNSGAAFGQGTKLTVL
